Numbering of substitutions follows the chain as printed. Numbers in names are those of the source.
T1: DCC
T1 construct: coated protein in the ELISA; also called DCC-His (R&D Systems)
T1 chain: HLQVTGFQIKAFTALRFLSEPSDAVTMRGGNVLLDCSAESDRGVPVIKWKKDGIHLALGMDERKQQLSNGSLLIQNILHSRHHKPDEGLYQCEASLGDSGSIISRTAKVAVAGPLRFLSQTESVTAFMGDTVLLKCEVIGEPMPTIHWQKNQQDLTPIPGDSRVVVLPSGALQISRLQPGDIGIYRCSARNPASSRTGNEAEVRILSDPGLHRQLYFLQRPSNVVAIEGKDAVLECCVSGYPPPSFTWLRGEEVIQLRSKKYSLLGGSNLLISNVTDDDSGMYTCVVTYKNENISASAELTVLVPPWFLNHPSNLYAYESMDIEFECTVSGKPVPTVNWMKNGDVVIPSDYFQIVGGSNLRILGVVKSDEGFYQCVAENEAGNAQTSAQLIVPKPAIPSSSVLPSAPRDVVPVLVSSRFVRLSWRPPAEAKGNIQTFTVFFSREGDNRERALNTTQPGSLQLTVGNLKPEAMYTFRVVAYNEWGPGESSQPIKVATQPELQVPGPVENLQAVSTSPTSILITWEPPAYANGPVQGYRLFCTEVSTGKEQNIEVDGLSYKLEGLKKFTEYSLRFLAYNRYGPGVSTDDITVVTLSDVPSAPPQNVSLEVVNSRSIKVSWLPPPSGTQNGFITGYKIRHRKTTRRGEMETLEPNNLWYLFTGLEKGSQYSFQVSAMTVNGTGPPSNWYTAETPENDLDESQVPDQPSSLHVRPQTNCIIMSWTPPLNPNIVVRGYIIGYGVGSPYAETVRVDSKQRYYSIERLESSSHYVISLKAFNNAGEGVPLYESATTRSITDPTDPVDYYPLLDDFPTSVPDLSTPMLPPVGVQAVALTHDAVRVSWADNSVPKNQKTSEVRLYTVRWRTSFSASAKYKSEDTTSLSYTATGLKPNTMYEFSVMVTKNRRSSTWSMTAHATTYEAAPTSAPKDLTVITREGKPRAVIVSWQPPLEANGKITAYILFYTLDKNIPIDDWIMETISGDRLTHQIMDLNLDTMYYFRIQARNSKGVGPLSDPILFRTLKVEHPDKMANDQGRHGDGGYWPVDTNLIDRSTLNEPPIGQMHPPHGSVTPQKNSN

B1: HW-25 chimeric rabbit-human IgG1 LA/LA/PG (antibody, V domains shown)
VH: QSLEESGGRLVTPGTPLTLTCTVSGFSLSSYAMGWVRQAPGKGLEWIGIIDSRGSTYYATWAKGRFTISKTSTTVDLKITSPTTEDTATYFCAREDSYYYDSFNLWGPGTLVTVSS
VL: SFVLTQPASVQVNLGQTVSLTCTADTLSRRYASWYQQKPGQAPVLLIYRDTSRPSGVPDRFSGSSSGNTATLTISGAQAGDEADYYCATSDGSGSSYQCVFGGGTQLTVTG
notes: Fc-silenced (L234A/L235A/P329G) IgG1, lambda; Alexa Fluor 647-labeled in single-step flow cytometry; Cluster C-1
B2: HW-1 chimeric rabbit-human IgG1 LA/LA/PG (antibody, V domains shown)
VH: QSLEESGGGLFKPTDTLTLTCTASGFSLGSSYAISWVRQAPGKELEWIGTIDSGRAYYARWAKSRSTITRNTNENTVTLKMTSLTAADTATYFCARDLIPTYSQDIWGPGTLVTISS
VL: B1 VL with S95N, C99Y, G111S
notes: Fc-silenced (L234A/L235A/P329G) IgG1, lambda; Alexa Fluor 647-labeled in single-step flow cytometry; Prototype of cluster C-1
B3: HW-17 chimeric rabbit-human IgG1 LA/LA/PG (antibody, V domains shown)
VH: QSLGESRGRLVTPDETLTLTCTVSGIDLSSNAMSWVRQAPGEGLEWIGTINTGGRAYYASWAKGRFTISRTSTTVDLKMTSLTTEDTATYFCARERYSDGRAYDIWGPGTLVTISS
VL: B1 VL with R49T, T51S, S52N, V57I, S90D, S96I, C99Y
notes: as for B1

Molecular target: T2, PTP4A3 (PRL-3)
T2 construct: coated protein in the ELISA; also called His-PTP4A3 (R&D Systems)
Test: ELISA on coated His-PTP4A3
Description: (§1) Recombinant purified ECDs (50-150 ng) of each putative target protein were coated, incubated with 150 ng of the indicated primary antibody, and binding was detected using a peroxidase-conjugated anti-human Fab secondary antibody. Heatmap represents averages of technical triplicates. (8B) Target validation via siRNA knockdown. H929 cells were transfected with siRNA pools targeting the putative antibody targets ICAM1, CADM1, and PTPRG. Cells were then subjected to cognate IgG binding analysis via flow cytometry. (NT, non-targeting siRNA).
(§2) ELISA ELISA was conducted as described previously. Briefly, 50-150 ng of antigen was coated overnight in half-area 96-well plates at 4° C., blocked with 3% BSA at 37° C. for 1 h, and 150 ng of chimeric rabbit/human IgG1 was added, incubating for 2 h at 37° C. […] After incubating at 37° C. for 15 min-1 h (depending on intensity of controls), data were acquired using a SpectraMax M5 plate reader (Molecular Devices).

T2 sequence (chain, as listed by the source limits assumed): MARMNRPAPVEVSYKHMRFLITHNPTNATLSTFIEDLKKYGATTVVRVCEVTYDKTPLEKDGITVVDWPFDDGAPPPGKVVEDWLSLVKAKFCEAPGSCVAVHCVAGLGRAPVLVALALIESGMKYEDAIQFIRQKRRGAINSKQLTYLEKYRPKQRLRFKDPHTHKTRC

Binder | binding result
B1 | no binding (tested: 150 ng IgG1 per well)
B2 | no binding (tested: 150 ng IgG1 per well)
B3 | no binding (tested: 150 ng IgG1 per well)

Molecular target: T3, PTPRG on U266 cells (human, UniProt P23470)
T3 construct: endogenous on U266 multiple myeloma cells; also called HW-1 target on U266
Test: flow cytometry, IgG1 on U266 cells
Description: Staining protocol. Cells were harvested (5×10⁴ cells per sample), washed once with phosphate-buffered saline (PBS) at RT, and a second time with ice-cold FACS buffer (PBS, 0.5% BSA, 2 mM EDTA, 0.1% NaN₃). Cells were stained in 50 μL of primary antibody for 30 min on ice, washed twice with 100 μL FACS buffer, stained with 50 μL of diluted secondary antibody, washed two more times in FACS, and then resuspended in 50 μL FACS buffer. Samples were acquired on an Accuri C6 Plus or a BD FACSCanto II flow cytometer (both from BD Biosciences). Data were analyzed using FlowJo version 10 software. Primary antibodies: Fab (10 μg/mL), IgG1 (0.1 to 50 μg/mL), or 25 μL polyclonal Fabs from periplasmic extracts. Polyclonal Fabs were produced by diluting bacterial stocks by a factor of 100 in autoinduction media and incubating overnight to induce expression as previously described. […] Viability stains: DAPI (Cell Signaling Technology) or SYTOX AADvanced Dead Cell Stain (Thermo Fisher Scientific). Labeling: The panel of chimeric rabbit/human IgG1s was labeled using the Alexa Fluor 647 Labeling Kit (Thermo Fisher Scientific, #A20173) to facilitate single-step staining. Competition: Unlabeled IgG1s were added at saturating concentrations of 60 μg/mL to block the target receptors, incubating on ice for 30 min, followed by the addition of an equal volume of the Alexa Fluor 647 labeled antibody at 2 μg/mL, and the mixture was incubated on ice for another 30 min.

T3 sequence (P23470 20-1445 limits assumed): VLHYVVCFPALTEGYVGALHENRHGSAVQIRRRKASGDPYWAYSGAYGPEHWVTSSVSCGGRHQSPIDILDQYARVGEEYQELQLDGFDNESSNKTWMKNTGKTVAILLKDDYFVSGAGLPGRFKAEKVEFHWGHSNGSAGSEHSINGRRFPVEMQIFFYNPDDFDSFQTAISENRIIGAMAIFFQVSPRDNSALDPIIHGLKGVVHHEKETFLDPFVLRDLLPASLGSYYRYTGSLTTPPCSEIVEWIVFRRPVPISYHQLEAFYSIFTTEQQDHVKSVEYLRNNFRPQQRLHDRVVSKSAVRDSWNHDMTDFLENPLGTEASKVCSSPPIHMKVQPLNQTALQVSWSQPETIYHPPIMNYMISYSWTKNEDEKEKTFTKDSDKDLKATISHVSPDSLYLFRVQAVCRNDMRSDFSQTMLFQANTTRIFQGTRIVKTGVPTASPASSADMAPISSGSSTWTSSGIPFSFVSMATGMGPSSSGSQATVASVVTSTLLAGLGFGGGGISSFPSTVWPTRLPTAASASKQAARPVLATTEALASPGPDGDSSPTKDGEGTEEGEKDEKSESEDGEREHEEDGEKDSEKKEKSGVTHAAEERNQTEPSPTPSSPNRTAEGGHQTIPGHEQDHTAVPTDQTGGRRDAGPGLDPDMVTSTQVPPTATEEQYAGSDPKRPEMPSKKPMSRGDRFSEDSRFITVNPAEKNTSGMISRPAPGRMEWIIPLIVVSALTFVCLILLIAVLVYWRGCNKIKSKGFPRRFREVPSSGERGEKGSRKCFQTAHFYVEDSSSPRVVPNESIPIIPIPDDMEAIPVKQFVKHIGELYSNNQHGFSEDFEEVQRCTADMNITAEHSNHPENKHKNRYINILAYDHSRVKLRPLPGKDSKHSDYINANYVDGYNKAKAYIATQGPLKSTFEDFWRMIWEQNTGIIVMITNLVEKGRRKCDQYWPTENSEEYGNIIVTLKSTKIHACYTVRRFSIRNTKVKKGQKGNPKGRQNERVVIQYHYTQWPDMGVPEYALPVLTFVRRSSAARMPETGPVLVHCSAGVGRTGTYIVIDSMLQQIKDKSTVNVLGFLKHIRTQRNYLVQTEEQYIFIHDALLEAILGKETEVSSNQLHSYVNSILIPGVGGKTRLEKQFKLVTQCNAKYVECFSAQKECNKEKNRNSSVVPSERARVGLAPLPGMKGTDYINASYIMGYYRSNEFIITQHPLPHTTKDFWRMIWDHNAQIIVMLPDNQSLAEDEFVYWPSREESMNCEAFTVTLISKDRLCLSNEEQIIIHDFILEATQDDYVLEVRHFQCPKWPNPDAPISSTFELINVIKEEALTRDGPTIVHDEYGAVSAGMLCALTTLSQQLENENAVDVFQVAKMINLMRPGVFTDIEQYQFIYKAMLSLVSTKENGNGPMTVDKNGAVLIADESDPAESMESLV

antibody-bound positive cells (%) | Binder
69.6 | B1
84.4 | B2
85.2 | B3

Molecular target: T1, DCC
Test: ELISA on coated DCC-His, 150 ng IgG1; None 0.095
Description: as §1, §2

ELISA Absorbance (405 nm-570 nm) | Binder
0.063 | B1
0.068 | B2
0.077 | B3
